Here are results for 9 sequences from the supplement of paper PMC11246515.

± gives the standard deviation of the averaged measurements.

The data set can be described thus: total protein half-life in vivo (active degradation + dilution); higher = more stable protein.
Setting [1] is: E. coli NCM3722 delta-clpP delta-lon delta-hslV, growth: N-lim chemostat, doubling time 6 h.
Where [2] appears, read: E. coli NCM3722 delta-clpP, growth: N-lim chemostat, doubling time 6 h.
[3] abbreviates: E. coli NCM3722 delta-hslV, growth: N-lim chemostat, doubling time 6 h.
Setting [4] is: E. coli NCM3722 delta-lon, growth: N-lim chemostat, doubling time 6 h.
The mark [5] stands for this setting: E. coli NCM3722 delta-smpB, growth: N-lim chemostat, doubling time 6 h.
Where [6] appears, read: wild type E. coli NCM3722, growth: C-lim chemostat, doubling time 3 h.
[7] abbreviates: wild type E. coli NCM3722, growth: C-lim chemostat, doubling time 6 h.
Setting [8] is: wild type E. coli NCM3722, growth: C-lim chemostat, doubling time 12 h.
The mark [9] stands for this setting: wild type E. coli NCM3722, growth: N-lim chemostat, doubling time 6 h.
The mark [10] stands for this setting: wild type E. coli NCM3722, growth: N-lim chemostat, doubling time 12 h.
[11] abbreviates: wild type E. coli NCM3722, growth: P-lim chemostat, doubling time 6 h.
Setting [12] is: wild type E. coli NCM3722, growth: P-lim chemostat, doubling time 12 h.

“MTIKVGINGFGRIGRIVFRAAQKRSDIEIVAINDLLDADYMAYMLKYDSTHGRFDGTVEVKDGHLIVNGKKIRVTAERDPANLKWDEVGVDVVAEATGLFLTDETARKHITAGAKKVVMTGPSKDNTPMFVKGANFDKYAGQDIVSNASCTTNCLAPLAKVINDNFGIIEGLMTTVHATTATQKTVDGPSHKDWRGGRGASQNIIPSSTGAAKAVGKVLPELNGKLTGMAFRVPTPNVSVVDLTVRLEKAATYEQIKAAVKAAAEGEMKGVLGYTEDDVVSTDFNGEVCTSVFDAKAGIALNDNFVKLVSWYDNETGYSNKVLDLIAHISK [P0A9B2]”: the “total protein half-life in vivo” value reads like this: under setting [1], 6.03 ± 0.4 h; under setting [2], 5.43 ± 0.34 h; under setting [3], 5.447 ± 0.054 h; under setting [4], 5.382 ± 0.019 h; under setting [5], 5.22 ± 0.19 h; under setting [6], 3.35 ± 0.1 h. For the same sequence, the “total protein half-life in vivo” value came to 6.201 ± 0.014 h under setting [7]; 12.1 ± 0.39 h under setting [8]; 5.69 ± 0.16 h under setting [9]; 9.73 ± 0.3 h under setting [10]; 6.302 ± 0.044 h under setting [11]; 12.6 ± 0.74 h under setting [12].
For “MEAIKGSDVNVPDAVFAWMLDGRGGVKPLENTDVIDEAHPCWLHLNYVHHDSAQWLATTPLLPNNVRDALAGESTRPRVSRLGEGTLITLRCINGSTDERPDQLVAMRVYMDGRLIVSTRQRKVLALDDVVSDLEEGTGPTDCGGWLVDVCDALTDHSSEFIEQLHDKIIDLEDNLLDQQIPPRGFLALLRKQLIVMRRYMAPQRDVYARLASERLPWMSDDQRRRMQDIADRLGRGLDEIDACIARTGVMADEIAQVMQENLARRTYTMSLMAMVFLPSTFLTGLFGVNLGGIPGGGWQFGFSIFCILLVVLIGGVALWLHRSKWL”, the “total protein half-life in vivo” value by setting is: under setting [1], 6.29 ± 0.86 h; under setting [2], 5.99 ± 0.61 h; under setting [3], 5.56 ± 0.95 h; under setting [4], 6.34 ± 0.75 h; under setting [5], 5.71 ± 0.2 h; under setting [6], 3.06 ± 0.47 h. Besides, the “total protein half-life in vivo” value by setting is: under setting [7], 6.04 ± 0.35 h; under setting [8], 11.5 ± 0.33 h; under setting [9], 6.07 ± 0.2 h; under setting [10], 11.9 ± 0.9 h; under setting [11], 5.31 ± 0.072 h; under setting [12], 8.98 ± 0.42 h.
As for “MRIRYGWELALAALLVIEIVAFGAINPRMLDLNMLLFSTSDFICIGIVALPLTMVIVSGGIDISFGSTIGLCAIALGVLFQSGVPMPLAILLTLLLGALCGLINAGLIIYTKVNPLVITLGTLYLFAGSALLLSGMAGATGYEGIGGFPMAFTDFANLDVLGLPVPLIIFLICLLVFWLWLHKTHAGRNVFLIGQSPRVALYSAIPVNRTLCALYAMTGLASAVAAVLLVSYFGSARSDLGASFLMPAITAVVLGGANIYGGSGSIIGTAIAVLLVGYLQQGLQMAGVPNQVSSALSGALLIVVVVGRSVSLHRQQIKEWLARRANNPLP [P0AFS1]”, the “total protein half-life in vivo” value turned out to be 6.11 h under setting [7] and 13.4 h under setting [8].
“MNQSYGRLVSRAAIAATAMASLLLLIKIFAWWYTGSVSILAALVDSLVDIGASLTNLLVVRYSLQPADDNHSFGHGKAESLAALAQSMFISGSALFLFLTGIQHLISPTPMTDPGVGVIVTIVALICTIILVSFQRWVVRRTQSQAVRADMLHYQSDVMMNGAILLALGLSWYGWHRADALFALGIGIYILYSALRMGYEAVQSLLDRALPDEERQEIIDIVTSWPGVSGAHDLRTRQSGPTRFIQIHLEMEDSLPLVQAHMVADQVEQAILRRFPGSDVIIHQDPCSVVPREGKRSMLS”: the “total protein half-life in vivo” value was determined as 14.3 h under setting [8], 6.34 h under setting [9] and 5.52 h under setting [11].
For the sequence “MVPSTFSRLKAARCLPVVLAALIFAGCGTHTPDQSTAYMQGTAQADSAFYLQQMQQSSDDTRINWQLLAIRALVKEGKTGQAVELFNQLPQELNDAQRREKTLLAVEIKLAQKDFAGAQNLLAKITPADLEQNQQARYWQAKIDASQGRPSIDLLRALIAQEPLLGAKEKQQNIDATWQALSSMTQEQANTLVINADENILQGWLDLQRVWFDNRNDPDMMKAGIADWQKRYPNNPGAKMLPTQLVNVKAFKPASTNKIALLLPLNGQAAVFGRTIQQGFEAAKNIGTQPVAAQVAAAPAADVAEQPQPQTVDGVASPAQASVSDLTGEQPAAQPVPVSAPATSTAAVSAPANPSAELKIYDTSSQPLSQILSQVQQDGASIVVGPLLKNNVEELLKSNTPLNVLALNQPENIENRVNICYFALSPEDEARDAARHIRDQGKQAPLVLIPRSSLGDRVANAFAQEWQKLGGGTVLQQKFGSTSELRAGVNGGSGIALTGSPITLRATTDSGMTTNNPTLQTTPTDDQFTNNGGRVDAVYIVATPGEIAFIKPMIAMRNGSQSGATLYASSRSAQGTAGPDFRLEMEGLQYSEIPMLAGGNLPLMQQALSAVNNDYSLARMYAMGVDAWSLANHFSQMRQVQGFEINGNTGSLTANPDCVINRNLSWLQYQQGQVVPVS”, the “total protein half-life in vivo” value reads like this: under setting [1], 5.639 ± 0.023 h; under setting [2], 5.812 ± 0.034 h; under setting [3], 5.89 ± 0.37 h; under setting [4], 6.49 ± 0.16 h; under setting [5], 6.45 ± 0.83 h; under setting [6], 3.11 ± 0.16 h. The “total protein half-life in vivo” value by setting is: under setting [7], 5.614 ± 0.025 h; under setting [8], 11.2 ± 1 h; under setting [9], 6.03 ± 0.11 h; under setting [10], 13.1 ± 1.8 h; under setting [11], 5.91 ± 0.45 h; under setting [12], 11.5 ± 0.52 h.
As to “MELLCPAGNLPALKAAIENGADAVYIGLKDDTNARHFAGLNFTEKKLQEAVSFVHQHRRKLHIAINTFAHPDGYARWQRAVDMAAQLGADALILADLAMLEYAAERYPHIERHVSVQASATNEEAINFYHRHFDVARVVLPRVLSIHQVKQLARVTPVPLEVFAFGSLCIMSEGRCYLSSYLTGESPNTIGACSPARFVRWQQTPQGLESRLNEVLIDRYQDGENAGYPTLCKGRYLVDGERYHALEEPTSLNTLELLPELMAANIASVKIEGRQRSPAYVSQVAKVWRQAIDRCKADPQNFVPQSAWMETLGSMSEGTQTTLGAYHRKWQ”, under setting [1], the “total protein half-life in vivo” value is 4.53 h.
In the case of “MESYSQNSNKLDFQHEARILNGIWLITALGLVATAGLAWGAKYIEITATKYDSPPMYVAIGLLLLCMYGLSKDINKINAAIAGVIYLFLLSLVAIVVASLVPVYAIIIVFSTAGAMFLISMLAGLLFNVDPGSHRFIIMMTLTGLALVIIVNAALMSERPIWIISCLMIVLWSGIISHGRNKLLELAGKCHSEELWSPVRCAFTGALTLYYYFIGFFGILAAIAITLVWQRHTRFFH”, the “total protein half-life in vivo” value under setting [9] was over 8 h.
On to “MTNYRVESSSGRAARKMRLALMGPAFIAAIGYIDPGNFATNIQAGASFGYQLLWVVVWANLMAMLIQILSAKLGIATGKNLAEQIRDHYPRPVVWFYWVQAEIIAMATDLAEFIGAAIGFKLILGVSLLQGAVLTGIATFLILMLQRRGQKPLEKVIGGLLLFVAAAYIVELIFSQPNLAQLGKGMVIPSLPTSEAVFLAAGVLGATIMPHVIYLHSSLTQHLHGGSRQQRYSATKWDVAIAMTIAGFVNLAMMATAAAAFHFSGHTGVADLDEAYLTLQPLLSHAAATVFGLSLVAAGLSSTVVGTLAGQVVMQGFIRFHIPLWVRRTVTMLPSFIVILMGLDPTRILVMSQVLLSFGIALALVPLLIFTSDSKLMGDLVNSKRVKQTGWVIVVLVVALNIWLLVGTALGL [P0A769]”, for which the “total protein half-life in vivo” value reads like this: under setting [1], 2.46 h; under setting [2], 3.02 h; under setting [3], 2.87 h; under setting [5], 2.15 ± 0.48 h; under setting [6], 1.29 h; under setting [8], 3.66 h. Moreover, the “total protein half-life in vivo” value runs as follows: under setting [9], 2.23 ± 1.2 h; under setting [10], 3.65 ± 1.2 h; under setting [11], 2.19 h.
For the sequence “MSETKNELEDLLEKAATEPAHRPAFFRTLLESTVWVPGTAAQGEAVVEDSALDLQHWEKEDGTSVIPFFTSLEALQQAVEDEQAFVVMPVRTLFEMTLGETLFLNAKLPTGKEFMPREISLLIGEEGNPLSSQEILEGGESLILSEVAEPPAQMIDSLTTLFKTIKPVKRAFICSIKENEEAQPNLLIGIEADGDIEEIIQATGSVATDTLPGDEPIDICQVKKGEKGISHFITEHIAPFYERRWGGFLRDFKQNRII [P0AFZ1]”, the “total protein half-life in vivo” value reads like this: under setting [1], 3.64 h; under setting [2], 3.49 ± 0.42 h; under setting [3], 2.73 h; under setting [4], 3.96 ± 0.78 h; under setting [5], 2.39 ± 0.091 h; under setting [6], 2.44 h. Besides, the “total protein half-life in vivo” value runs as follows: under setting [7], 4.53 ± 0.38 h; under setting [8], 6.76 ± 0.27 h; under setting [9], 2.81 h; under setting [10], 4.38 h; under setting [11], 3.65 h; under setting [12], 7.61 h.
